From paper PMC3592467

Target: CDC5L–GFP (UniProt Q99459)
Assay: affinity purification with mass spectrometry

Chain of CDC5L–GFP (Q99459 whole entry): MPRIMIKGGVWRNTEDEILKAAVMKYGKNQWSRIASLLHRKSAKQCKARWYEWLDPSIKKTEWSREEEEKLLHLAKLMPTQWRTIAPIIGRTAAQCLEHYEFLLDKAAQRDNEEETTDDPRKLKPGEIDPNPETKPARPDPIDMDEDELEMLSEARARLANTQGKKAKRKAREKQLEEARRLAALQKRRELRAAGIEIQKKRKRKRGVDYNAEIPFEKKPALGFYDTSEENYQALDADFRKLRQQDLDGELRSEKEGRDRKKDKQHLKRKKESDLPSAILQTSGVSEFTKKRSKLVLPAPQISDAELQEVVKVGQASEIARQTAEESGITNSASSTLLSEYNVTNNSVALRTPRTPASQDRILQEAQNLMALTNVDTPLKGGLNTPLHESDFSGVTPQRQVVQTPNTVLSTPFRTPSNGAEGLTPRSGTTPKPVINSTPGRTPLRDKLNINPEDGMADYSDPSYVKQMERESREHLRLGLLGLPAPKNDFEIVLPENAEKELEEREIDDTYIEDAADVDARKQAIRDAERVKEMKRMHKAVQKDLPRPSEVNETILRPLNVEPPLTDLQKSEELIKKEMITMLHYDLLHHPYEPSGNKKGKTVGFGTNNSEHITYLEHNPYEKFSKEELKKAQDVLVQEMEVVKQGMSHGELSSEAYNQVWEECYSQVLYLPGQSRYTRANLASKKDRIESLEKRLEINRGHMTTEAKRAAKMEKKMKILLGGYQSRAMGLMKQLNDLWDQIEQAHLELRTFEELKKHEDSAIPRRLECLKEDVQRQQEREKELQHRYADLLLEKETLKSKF
Chain of HSP70 (P11142 whole entry): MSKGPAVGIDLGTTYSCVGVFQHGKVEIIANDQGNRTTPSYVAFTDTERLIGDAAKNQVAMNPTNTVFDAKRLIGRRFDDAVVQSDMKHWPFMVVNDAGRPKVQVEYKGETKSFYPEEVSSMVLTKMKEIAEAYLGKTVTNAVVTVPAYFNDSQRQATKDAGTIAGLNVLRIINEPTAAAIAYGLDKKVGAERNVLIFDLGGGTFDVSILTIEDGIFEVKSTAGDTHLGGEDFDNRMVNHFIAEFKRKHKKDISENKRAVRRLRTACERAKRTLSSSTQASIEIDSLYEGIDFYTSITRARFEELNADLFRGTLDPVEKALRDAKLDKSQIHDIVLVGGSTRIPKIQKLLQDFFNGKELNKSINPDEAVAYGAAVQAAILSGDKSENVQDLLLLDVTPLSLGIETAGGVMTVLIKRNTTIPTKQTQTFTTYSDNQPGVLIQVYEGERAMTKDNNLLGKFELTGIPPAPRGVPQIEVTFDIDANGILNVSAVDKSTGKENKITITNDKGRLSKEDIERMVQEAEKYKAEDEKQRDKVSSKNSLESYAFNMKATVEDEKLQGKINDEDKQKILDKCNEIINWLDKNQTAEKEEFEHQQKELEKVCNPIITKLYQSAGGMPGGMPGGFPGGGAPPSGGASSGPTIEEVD

- stoichiometry N (relative to CDC5L): 0.2
- stoichiometry with CDC5L as a dimer (CDC5L 2) (per CDC5L dimer): 0.4
Substance: HSP70 (from UniProt P11142 1-646) (natural protein)
